The values that follow come from paper PMC9825591.

Test [1] concerns the target EPYC1-GFP (Chlamydomonas reinhardtii). Description: fluorescence correlation spectroscopy (FCS); 10 nM EPYC1-GFP with varying concentrations of unlabeled Rubisco in solution, one-phase region (no condensates); 20 mM Tris-HCl, 50 mM NaCl, pH 8.0; PEI-g-PEG coated coverslip; EPYC1-GFP diffusion coefficient against Rubisco concentration fitted with a quadratic binding equation; the authors consider the Kd an upper bound.

For test [2] the target is unchanged. Description: fluorescence correlation spectroscopy (FCS); dilute phase of a phase-separated mixture, alongside condensates: EPYC1-GFP fixed at 20 nM, unlabeled EPYC1 1 to 4 μM, Rubisco 0.05 to 2 μM; laser aimed at a region away from condensates.

What is called Kd is the concentration at which binding is half-saturated. A higher Kd goes with a looser complex. In test [1], “Ribulose-1,5-bisphosphate carboxylase/oxygenase (Rubisco) holoenzyme, wildtype (from UniProt P00877 3-475; P00873 46-185) (complex)” yielded a Kd of 29 nM. Besides, the Rubisco holoenzymes per EPYC1-Rubisco complex in test [1] and in test [2] was 1 throughout.
